Patent US20240124553A1

Legend:
Experiment in all cases: flow cytometry, transfected 293T cells
[1] = target: CHIKV E2-E1 envelope glycoproteins (strain S27), E2 mutant A103S (chikungunya virus strain S27) (UniProt Q8JUX5)
[2] = target: CHIKV E2-E1 envelope glycoproteins (strain S27), E2 mutant A41S (chikungunya virus strain S27) (UniProt Q8JUX5)
[3] = target: CHIKV E2-E1 envelope glycoproteins (strain S27), E2 mutant A76S (chikungunya virus strain S27) (UniProt Q8JUX5)
[4] = target: CHIKV E2-E1 envelope glycoproteins (strain S27), E2 mutant A78S (chikungunya virus strain S27) (UniProt Q8JUX5)
[5] = target: CHIKV E2-E1 envelope glycoproteins (strain S27), E2 mutant A81S (chikungunya virus strain S27) (UniProt Q8JUX5)
[6] = target: CHIKV E2-E1 envelope glycoproteins (strain S27), E2 mutant D60A (chikungunya virus strain S27) (UniProt Q8JUX5)
[7] = target: CHIKV E2-E1 envelope glycoproteins (strain S27), E2 mutant E109A (chikungunya virus strain S27) (UniProt Q8JUX5)
[8] = target: CHIKV E2-E1 envelope glycoproteins (strain S27), E2 mutant E35A (chikungunya virus strain S27) (UniProt Q8JUX5)
[9] = target: CHIKV E2-E1 envelope glycoproteins (strain S27), E2 mutant E40A (chikungunya virus strain S27) (UniProt Q8JUX5)
[10] = target: CHIKV E2-E1 envelope glycoproteins (strain S27), E2 mutant F129A (chikungunya virus strain S27) (UniProt Q8JUX5)
[11] = target: CHIKV E2-E1 envelope glycoproteins (strain S27), E2 mutant G108A (chikungunya virus strain S27) (UniProt Q8JUX5)
[12] = target: CHIKV E2-E1 envelope glycoproteins (strain S27), E2 mutant G55A (chikungunya virus strain S27) (UniProt Q8JUX5)
[13] = target: CHIKV E2-E1 envelope glycoproteins (strain S27), E2 mutant H130A (chikungunya virus strain S27) (UniProt Q8JUX5)
[14] = target: CHIKV E2-E1 envelope glycoproteins (strain S27), E2 mutant H131A (chikungunya virus strain S27) (UniProt Q8JUX5)
[15] = target: CHIKV E2-E1 envelope glycoproteins (strain S27), E2 mutant H73A (chikungunya virus strain S27) (UniProt Q8JUX5)
[16] = target: CHIKV E2-E1 envelope glycoproteins (strain S27), E2 mutant I101A (chikungunya virus strain S27) (UniProt Q8JUX5)
[17] = target: CHIKV E2-E1 envelope glycoproteins (strain S27), E2 mutant I48A (chikungunya virus strain S27) (UniProt Q8JUX5)
[18] = target: CHIKV E2-E1 envelope glycoproteins (strain S27), E2 mutant K66A (chikungunya virus strain S27) (UniProt Q8JUX5)
[19] = target: CHIKV E2-E1 envelope glycoproteins (strain S27), E2 mutant M97A (chikungunya virus strain S27) (UniProt Q8JUX5)
[20] = target: CHIKV E2-E1 envelope glycoproteins (strain S27), E2 mutant N72A (chikungunya virus strain S27) (UniProt Q8JUX5)
[21] = target: CHIKV E2-E1 envelope glycoproteins (strain S27), E2 mutant P128A (chikungunya virus strain S27) (UniProt Q8JUX5)
[22] = target: CHIKV E2-E1 envelope glycoproteins (strain S27), E2 mutant P133A (chikungunya virus strain S27) (UniProt Q8JUX5)
[23] = target: CHIKV E2-E1 envelope glycoproteins (strain S27), E2 mutant Q49A (chikungunya virus strain S27) (UniProt Q8JUX5)
[24] = target: CHIKV E2-E1 envelope glycoproteins (strain S27), E2 mutant R86A (chikungunya virus strain S27) (UniProt Q8JUX5)
[25] = target: CHIKV E2-E1 envelope glycoproteins (strain S27), E2 mutant S122A (chikungunya virus strain S27) (UniProt Q8JUX5)
[26] = target: CHIKV E2-E1 envelope glycoproteins (strain S27), E2 mutant S88A (chikungunya virus strain S27) (UniProt Q8JUX5)
[27] = target: CHIKV E2-E1 envelope glycoproteins (strain S27), E2 mutant T116A (chikungunya virus strain S27) (UniProt Q8JUX5)
[28] = target: CHIKV E2-E1 envelope glycoproteins (strain S27), E2 mutant T42A (chikungunya virus strain S27) (UniProt Q8JUX5)
[29] = target: CHIKV E2-E1 envelope glycoproteins (strain S27), E2 mutant T45A (chikungunya virus strain S27) (UniProt Q8JUX5)
[30] = target: CHIKV E2-E1 envelope glycoproteins (strain S27), E2 mutant T87A (chikungunya virus strain S27) (UniProt Q8JUX5)
[31] = target: CHIKV E2-E1 envelope glycoproteins (strain S27), E2 mutant T94A (chikungunya virus strain S27) (UniProt Q8JUX5)
[32] = target: CHIKV E2-E1 envelope glycoproteins (strain S27), E2 mutant V32A (chikungunya virus strain S27) (UniProt Q8JUX5)
[33] = target: CHIKV E2-E1 envelope glycoproteins (strain S27), E2 mutant Y69A (chikungunya virus strain S27) (UniProt Q8JUX5)

Substance | Binding Reactivity (% WT) [1] | Binding Reactivity (% WT) [2] | Binding Reactivity (% WT) [4] | Binding Reactivity (% WT) [5] | Binding Reactivity (% WT) [6] | Binding Reactivity (% WT) [7] | Binding Reactivity (% WT) [8] | Binding Reactivity (% WT) [9] | Binding Reactivity (% WT) [10] | Binding Reactivity (% WT) [11] | Binding Reactivity (% WT) [12] | Binding Reactivity (% WT) [13] | Binding Reactivity (% WT) [14] | Binding Reactivity (% WT) [15] | Binding Reactivity (% WT) [16] | Binding Reactivity (% WT) [17] | Binding Reactivity (% WT) [19] | Binding Reactivity (% WT) [20] | Binding Reactivity (% WT) [21] | Binding Reactivity (% WT) [22] | also measured
CHIKV mAb IM-CKV063 (antibody) | 65.8 % WT | 51.1 % WT | 99.1 % WT | 93 % WT | 64.8 % WT | 76.6 % WT | 19.1 % WT | 106 % WT | 3.9 % WT | 59 % WT | 83.3 % WT | 91 % WT | 16.5 % WT | 84.2 % WT | 19.8 % WT | 7.9 % WT | 69.9 % WT | 114 % WT | 86 % WT | 73.9 % WT | Binding Reactivity (% WT) [3]: 107 % WT; Binding Reactivity (% WT) [18]: 84.2 % WT; Binding Reactivity (% WT) [23]: 55.4 % WT; Binding Reactivity (% WT) [24]: 127 % WT; Binding Reactivity (% WT) [25]: 82.8 % WT; Binding Reactivity (% WT) [26]: 89.5 % WT; Binding Reactivity (% WT) [27]: 104 % WT; Binding Reactivity (% WT) [28]: 111 % WT; Binding Reactivity (% WT) [29]: 62.1 % WT; Binding Reactivity (% WT) [30]: 18.8 % WT; Binding Reactivity (% WT) [31]: 95.5 % WT; Binding Reactivity (% WT) [32]: 44.1 % WT; Binding Reactivity (% WT) [33]: 60.7 % WT
CHIKV mAb IM-CKV065 (antibody) | 46.8 % WT | 33.8 % WT | 107 % WT | 96.6 % WT | 114 % WT | 82.6 % WT | 11.7 % WT | 124 % WT | -1.1 % WT | 34.8 % WT | 86.2 % WT | 104 % WT | 3.2 % WT | -0.9 % WT | 6.3 % WT | 0.3 % WT | 65.7 % WT | 103 % WT | 80.3 % WT | 66.6 % WT | Binding Reactivity (% WT) [3]: 125 % WT; Binding Reactivity (% WT) [18]: 99.6 % WT; Binding Reactivity (% WT) [23]: 37.3 % WT; Binding Reactivity (% WT) [24]: 102 % WT; Binding Reactivity (% WT) [25]: 91.1 % WT; Binding Reactivity (% WT) [26]: 101 % WT; Binding Reactivity (% WT) [27]: 103 % WT; Binding Reactivity (% WT) [28]: 104 % WT; Binding Reactivity (% WT) [29]: 62.4 % WT; Binding Reactivity (% WT) [30]: 7.6 % WT; Binding Reactivity (% WT) [31]: 102 % WT; Binding Reactivity (% WT) [32]: 33.3 % WT; Binding Reactivity (% WT) [33]: 46.3 % WT
Mxra8-Fc (mouse Mxra8 extracellular domain fused to mouse IgG2b Fc) (Fc fusion) | 91.3 % WT | 4.9 % WT | 106 % WT | 85.2 % WT | 102 % WT | 97.4 % WT | 11 % WT | 86.2 % WT | 4.1 % WT | 76.7 % WT | 101 % WT | 101 % WT | 15.7 % WT | 102 % WT | 23.7 % WT | 11.1 % WT | 95.1 % WT | 128 % WT | 122 % WT | 81.3 % WT | Binding Reactivity (% WT) [23]: 56.8 % WT; Binding Reactivity (% WT) [24]: 91.5 % WT; Binding Reactivity (% WT) [25]: 101 % WT; Binding Reactivity (% WT) [26]: 94 % WT; Binding Reactivity (% WT) [27]: 31.2 % WT; Binding Reactivity (% WT) [28]: 95.7 % WT; Binding Reactivity (% WT) [29]: 81.2 % WT; Binding Reactivity (% WT) [30]: 23.5 % WT; Binding Reactivity (% WT) [31]: 99.7 % WT; Binding Reactivity (% WT) [32]: 47.1 % WT; Binding Reactivity (% WT) [33]: 106 % WT
